B1: Probable peptidoglycan glycosyltransferase FtsW (Caulobacter crescentus), B8H092 (parent)
chain: MASNATHAFARTDRTALGLWWWTTDRWLLGATALLVTLGMLLSFASSPAAAQRIGIDDQFHFALRMCFFATASSVLMLITSMLSPRDIRRAAFFIYLGAIAVMIALPFIGHNAKGATRWLQFAGFTLQPSEFMKPALIVLVSWMFAEGQKGEGVPGVSIAFLLYFIAVALLLIQPDVGQTVLITIAFGAAFWMAGVPISWIMGLGGVALAGLGSTYFLFDHVHARVQKFLSPDQADTHQITRAAEAIRAGGLFGRGPGEGVMKRHVPDLHTDFIYSVAAEEYGLIFSWSLIGLFAFVVVRGLYKAMKLNDPFEQVAAAGLFVLVGQQALINIAVNLNMIPTKGMTLPFISYGGSSMLAMGLTLGMALALLRKRPGAYGASGEFGFGRADA
partner: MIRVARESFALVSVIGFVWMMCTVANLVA

Variants of: B1
Conditions: with sida_cauvn sidA

Variant | effect of a mutation on the interaction
MASNATHAFARTDRTALGLWWWTTDRWLLGKTALLVTLGMLLSFASSPAAAQRIGIDDQFHFALRMCFFATASSVLMLITSMLSPRDIRRAAFFIYLGAIAVMIALPFIGHNAKGATRWLQFAGFTLQPSEFMKPALIVLVSWMFAEGQKGEGVPGVSIAFLLYFIAVALLLIQPDVGQTVLITIAFGAAFWMAGVPISWIMGLGGVALAGLGSTYFLFDHVHARVQKFLSPDQADTHQITRAAEAIRAGGLFGRGPGEGVMKRHVPDLHTDFIYSVAAEEYGLIFSWSLIGLFAFVVVRGLYKAMKLNDPFEQVAAAGLFVLVGQQALINIAVNLNMIPTKGMTLPFISYGGSSMLAMGLTLGMALALLRKRPGAYGASGEFGFGRADA [A31K] | disrupting interaction strength

— IntAct's records for PubMed 25350732
